# In paper PMC8990529:
# T1: GST-APE1 1-42 (human, UniProt P27695 1-42)
# T1 chain: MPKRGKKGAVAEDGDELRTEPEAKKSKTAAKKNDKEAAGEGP
# B1: non-G4-forming KRAS oligo, 6-FAM (ssDNA)
# DNA: AGTTCGGTGTGTTAAGAGTTAAGAGTTGGAGG
# B2: G4-forming KRAS oligo (32R), 6-FAM (structured_DNA)
# DNA: AGGGCGGTGTGGGAAGAGGGAAGAGGGGGAGG
# B3: G4-forming KRAS oligo (32R), unlabeled (structured_DNA)
# DNA: B2 DNA
# How the values were obtained:
# [1] = test system: anti-G4 antibody clone 1H6 (mouse); assay: fluorescence polarization; conditions: FP: 50 mM Tris-HCl pH 7.5, 50 mM KCl, 1 mM MgCl2, 1 mM DTT, 0.1 mM EDTA, 10 nM oligo, 30 min RT, read at 25 C; Trp quenching: same buffer, 500 nM APE1, 20 C
# [2] = test system: G4-forming KRAS oligo (32R), unlabeled (DNA, G4) AGGGCGGTGTGGGAAGAGGGAAGAGGGGGAGG; assay: UV-Vis absorption titration, Scatchard plot; conditions: 50 mM KCl; 10 mM Tris-HCl pH 7.5, 1 mM EDTA, RT; 4 µM TMPyP4, oligo 0-1.8 µM; specific site
# APE1 WT [3] = molecular target: T2, APE1 WT (human, UniProt P27695 1-318); assay: fluorescence polarization; 50 mM KCl, 1 mM MgCl2; no measurable affinity; FP: 50 mM Tris-HCl pH 7.5, 50 mM KCl, 1 mM MgCl2, 1 mM DTT, 0.1 mM EDTA, 10 nM oligo, 30 min RT, read at 25 C; Trp quenching: same buffer, 500 nM APE1, 20 C; conditions: protein: recombinant; label: 5'-6-FAM; no parallel G4 by CD
# T2 sequence (P27695 whole entry): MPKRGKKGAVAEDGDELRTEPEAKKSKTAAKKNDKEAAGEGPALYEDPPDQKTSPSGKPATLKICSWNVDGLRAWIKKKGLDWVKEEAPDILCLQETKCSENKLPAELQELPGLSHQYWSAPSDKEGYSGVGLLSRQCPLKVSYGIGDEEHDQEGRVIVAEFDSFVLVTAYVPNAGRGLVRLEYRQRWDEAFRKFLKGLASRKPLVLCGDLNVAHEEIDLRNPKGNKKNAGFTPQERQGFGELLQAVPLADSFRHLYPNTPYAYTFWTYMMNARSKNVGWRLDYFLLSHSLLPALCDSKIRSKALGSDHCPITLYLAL
# APE1 NΔ42 = APE1 NΔ42 (human, UniProt P27695 43-318, del1-42); assay: fluorescence polarization; 50 mM KCl, 1 mM MgCl2; FP: 50 mM Tris-HCl pH 7.5, 50 mM KCl, 1 mM MgCl2, 1 mM DTT, 0.1 mM EDTA, 10 nM oligo, 30 min RT, read at 25 C; Trp quenching: same buffer, 500 nM APE1, 20 C; conditions: protein: recombinant; label: 5'-6-FAM; parallel G4 (CD), prefolded in 50 mM KCl
# APE1 NΔ42, sequence (P27695 43-318, stated change not applied): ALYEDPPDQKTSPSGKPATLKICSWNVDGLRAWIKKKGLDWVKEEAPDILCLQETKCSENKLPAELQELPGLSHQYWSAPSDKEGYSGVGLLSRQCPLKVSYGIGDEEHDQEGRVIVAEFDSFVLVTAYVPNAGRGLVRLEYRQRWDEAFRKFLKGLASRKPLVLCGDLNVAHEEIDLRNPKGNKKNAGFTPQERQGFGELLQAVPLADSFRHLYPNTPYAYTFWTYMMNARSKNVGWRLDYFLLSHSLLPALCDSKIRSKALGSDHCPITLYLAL
# APE1 WT [4] = molecular target: T2, APE1 WT; assay: as above; conditions: protein: recombinant; label: 5'-6-FAM; parallel G4 (CD), prefolded in 50 mM KCl
# APE1 H309A = APE1 H309A (human, UniProt P27695 1-318, H309A); assay: as above; conditions: protein: recombinant; label: 5'-6-FAM; parallel G4 (CD), prefolded in 50 mM KCl
# APE1 H309A, sequence (P27695 whole entry H309A): as the sequence (P27695 whole entry) above, with H309A counted along it
# GST-APE1 1-42 = molecular target: T1, GST-APE1 1-42; assay: fluorescence polarization; 50 mM KCl, 1 mM MgCl2; no measurable affinity; FP: 50 mM Tris-HCl pH 7.5, 50 mM KCl, 1 mM MgCl2, 1 mM DTT, 0.1 mM EDTA, 10 nM oligo, 30 min RT, read at 25 C; Trp quenching: same buffer, 500 nM APE1, 20 C; conditions: protein: recombinant; tags: GST; label: 5'-6-FAM; parallel G4 (CD), prefolded in 50 mM KCl
# APE1 WT [5] = molecular target: T2, APE1 WT; assay: tryptophan fluorescence quenching (Scatchard); 500 nM APE1, 50 mM KCl, 1 mM MgCl2, 20 C; FP: 50 mM Tris-HCl pH 7.5, 50 mM KCl, 1 mM MgCl2, 1 mM DTT, 0.1 mM EDTA, 10 nM oligo, 30 min RT, read at 25 C; Trp quenching: same buffer, 500 nM APE1, 20 C; conditions: protein: recombinant; parallel G4 (CD), prefolded in 50 mM KCl
# APE1 WT [6] = molecular target: T2, APE1 WT; assay: competition (fluorescence polarization; printed as EC50); 640 nM APE1, 10 nM 6-FAM G4-forming KRAS oligo as probe; FP: 50 mM Tris-HCl pH 7.5, 50 mM KCl, 1 mM MgCl2, 1 mM DTT, 0.1 mM EDTA, 10 nM oligo, 30 min RT, read at 25 C; Trp quenching: same buffer, 500 nM APE1, 20 C; conditions: protein: recombinant; parallel G4 (CD), prefolded in 50 mM KCl
molecule,measurement,setting,value
"AGGGCGGTGTGGGAAGAGGGAAGAGGGGGAGG [G4-forming KRAS oligo (32R), 6-FAM]",Kd,[1],0.5 nM
C[n+]1ccc(-c2c3nc(c(-c4cc[n+](C)cc4)c4ccc([nH]4)c(-c4cc[n+](C)cc4)c4nc(c(-c5cc[n+](C)cc5)c5ccc2[nH]5)C=C4)C=C3)cc1,Kd,[2],11 nM
B1,binding result,APE1 WT [3],no binding
B2,Kd,APE1 NΔ42,313 ± 12 nM
same,Kd,APE1 WT [4],31 ± 3 nM
same,Kd,APE1 H309A,152 ± 25 nM
same,binding result,GST-APE1 1-42,no binding
B3,Kd,APE1 WT [5],12 nM
same,IC50,APE1 WT [6],2300 ± 1500 nM
